# Test results reported in IntAct's records for PubMed 31515488.
# B1: E3 ubiquitin-protein ligase MARCHF5 (Homo sapiens), Q9NX47 (parent)
# chain: MPDQALQQMLDRSCWVCFATDEDDRTAEWVRPCRCRGSTKWVHQACLQRWVDEKQRGNSTARVACPQCNAEYLIVFPKLGPVVYVLDLADRLISKACPFAAAGIMVGSIYWTAVTYGAVTVMQVVGHKEGLDVMERADPLFLLIGLPTIPVMLILGKMIRWEDYVLRLWRKYSNKLQILNSIFPGIGCPVPRIPAEANPLADHVSATRILCGALVFPTIATIVGKLMFSSVNSNLQRTILGGIAFVAIKGAFKVYFKQQQYLRQAHRKILNYPEQEEA
# B2: Protein DDI1 homolog 1 (Homo sapiens), Q8WTU0 (parent)
# chain: MLITVYCVRRDLSEVTFSLQVSPDFELRNFKVLCEAESRVPVEEIQIIHMERLLIEDHCSLGSYGLKDGDIVVLLQKDNVGPRAPGRAPNQPRVDFSGIAVPGTSSSRPQHPGQQQQRTPAAQRSQGLASGEKVAGLQGLGSPALIRSMLLSNPHDLSLLKERNPPLAEALLSGSLETFSQVLMEQQREKALREQERLRLYTADPLDREAQAKIEEEIRQQNIEENMNIAIEEAPESFGQVTMLYINCKVNGHPLKAFVDSGAQMTIMSQACAERCNIMRLVDRRWAGVAKGVGTQRIIGRVHLAQIQIEGDFLQCSFSILEDQPMDMLLGLDMLRRHQCSIDLKKNVLVIGTTGTQTYFLPEGELPLCSRMVSGQDESSDKEITHSVMDSGRKEH
# partner: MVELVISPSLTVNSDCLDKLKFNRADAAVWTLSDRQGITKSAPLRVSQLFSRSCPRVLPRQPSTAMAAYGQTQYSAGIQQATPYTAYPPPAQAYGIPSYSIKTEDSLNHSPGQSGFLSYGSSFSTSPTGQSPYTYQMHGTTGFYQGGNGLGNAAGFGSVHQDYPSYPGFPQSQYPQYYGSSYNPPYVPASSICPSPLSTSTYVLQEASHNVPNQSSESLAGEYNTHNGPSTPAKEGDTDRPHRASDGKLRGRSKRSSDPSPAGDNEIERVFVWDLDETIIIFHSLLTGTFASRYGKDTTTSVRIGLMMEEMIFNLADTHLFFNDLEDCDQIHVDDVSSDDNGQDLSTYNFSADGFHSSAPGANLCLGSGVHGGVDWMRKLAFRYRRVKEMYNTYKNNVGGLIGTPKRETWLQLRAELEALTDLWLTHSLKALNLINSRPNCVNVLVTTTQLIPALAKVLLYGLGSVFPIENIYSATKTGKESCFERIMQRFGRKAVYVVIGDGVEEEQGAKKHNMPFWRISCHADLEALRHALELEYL
# B3: U3 small nucleolar RNA-associated protein 14 homolog A (Homo sapiens), Q9BVJ6 (parent)
# chain: MTANRLAESLLALSQQEELADLPKDYLLSESEDEGDNDGERKHQKLLEAISSLDGKNRRKLAERSEASLKVSEFNVSSEGSGEKLVLADLLEPVKTSSSLATVKKQLSRVKSKKTVELPLNKEEIERIHREVAFNKTAQVLSKWDPVVLKNRQAEQLVFPLEKEEPAIAPIEHVLSGWKARTPLEQEIFNLLHKNKQPVTDPLLTPVEKASLRAMSLEEAKMRRAELQRARALQSYYEAKARREKKIKSKKYHKVVKKGKAKKALKEFEQLRKVNPAAALEELEKIEKARMMERMSLKHQNSGKWAKSKAIMAKYDLEARQAMQEQLSKNKELTQKLQVASESEEEEGGTEDVEELLVPDVVNEVQMNADGPNPWMLRSCTSDTKEAATQEDPEQLPELEAHGVSESEGEERPVAEEEILLREFEERRSLRKRSELSQDAEPAGSQETKDSGSQEVLSELRVLSQKLKENHQSRKQKASSEGTIPQVQREEPAPEEEEPLLLQRPERVQTLEELEELGKEECFQNKELPRPVLEGQQSERTPNNRPDAPKEKKKKEQMIDLQNLLTTQSPSVKSLAVPTIEELEDEEERNHRQMIKEAFAGDDVIRDFLKEKREAVEASKPKDVDLTLPGWGEWGGVGLKPSAKKRRRFLIKAPEGPPRKDKNLPNVIINEKRNIHAAAHQVRVLPYPFTHHWQFERTIQTPIGSTWNTQRAFQKLTTPKVVTKPGHIINPIKAEDVGYRSSSRSDLSVIQRNPKRITTRHKKQLKKCSVD
# partner: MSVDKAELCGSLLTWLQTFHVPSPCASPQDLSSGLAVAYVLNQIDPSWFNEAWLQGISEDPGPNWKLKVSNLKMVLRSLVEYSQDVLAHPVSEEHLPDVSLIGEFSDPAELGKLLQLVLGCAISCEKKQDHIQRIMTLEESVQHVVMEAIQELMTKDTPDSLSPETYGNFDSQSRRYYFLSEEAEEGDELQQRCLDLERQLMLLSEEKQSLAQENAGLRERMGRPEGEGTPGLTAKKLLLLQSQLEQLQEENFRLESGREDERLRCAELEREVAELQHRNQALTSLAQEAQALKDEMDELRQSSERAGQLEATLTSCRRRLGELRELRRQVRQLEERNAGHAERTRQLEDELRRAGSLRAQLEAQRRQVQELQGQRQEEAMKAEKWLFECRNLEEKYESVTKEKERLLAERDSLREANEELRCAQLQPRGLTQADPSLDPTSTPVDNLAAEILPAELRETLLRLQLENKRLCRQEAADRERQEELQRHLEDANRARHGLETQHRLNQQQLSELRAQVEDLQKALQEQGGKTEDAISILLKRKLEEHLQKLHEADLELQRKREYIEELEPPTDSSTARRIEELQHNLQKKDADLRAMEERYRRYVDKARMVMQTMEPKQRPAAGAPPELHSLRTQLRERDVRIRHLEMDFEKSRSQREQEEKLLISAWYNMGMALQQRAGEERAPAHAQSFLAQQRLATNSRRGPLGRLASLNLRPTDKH
# B4: Isoform 1 of DNA mismatch repair protein Mlh1 (Homo sapiens), P40692-1 (parent)
# chain: MSFVAGVIRRLDETVVNRIAAGEVIQRPANAIKEMIENCLDAKSTSIQVIVKEGGLKLIQIQDNGTGIRKEDLDIVCERFTTSKLQSFEDLASISTYGFRGEALASISHVAHVTITTKTADGKCAYRASYSDGKLKAPPKPCAGNQGTQITVEDLFYNIATRRKALKNPSEEYGKILEVVGRYSVHNAGISFSVKKQGETVADVRTLPNASTVDNIRSIFGNAVSRELIEIGCEDKTLAFKMNGYISNANYSVKKCIFLLFINHRLVESTSLRKAIETVYAAYLPKNTHPFLYLSLEISPQNVDVNVHPTKHEVHFLHEESILERVQQHIESKLLGSNSSRMYFTQTLLPGLAGPSGEMVKSTTSLTSSSTSGSSDKVYAHQMVRTDSREQKLDAFLQPLSKPLSSQPQAIVTEDKTDISSGRARQQDEEMLELPAPAEVAAKNQSLEGDTTKGTSEMSEKRGPTSSNPRKRHREDSDVEMVEDDSRKEMTAACTPRRRIINLTSVLSLQEEINEQGHEVLREMLHNHSFVGCVNPQWALAQHQTKLYLLNTTKLSEELFYQILIYDFANFGVLRLSEPAPLFDLAMLALDSPESGWTEEDGPKEGLAEYIVEFLKKKAEMLADYFSLEIDEEGNLIGLPLLIDNYVPPLEGLPIFILRLATEVNWDEEKECFESLSKECAMFYSIRKQYISEESTLSGQQSEVPGSIPNSWKWTVEHIVYKALRSHILPPKHFTEDGNILQLANLPDLYKVFERC
# partner: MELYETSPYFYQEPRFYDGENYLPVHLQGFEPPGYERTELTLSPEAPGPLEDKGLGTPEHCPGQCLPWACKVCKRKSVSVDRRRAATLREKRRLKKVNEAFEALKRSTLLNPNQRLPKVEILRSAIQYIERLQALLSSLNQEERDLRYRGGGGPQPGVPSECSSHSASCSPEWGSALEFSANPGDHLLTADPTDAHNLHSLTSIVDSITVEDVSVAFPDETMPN
# Variants of: B1
# Conditions: with ube2w_human UBE2W
row,effect of a mutation on the interaction,Variant
1,with no effect,T20A
2,with no effect,D202N

# Variants of: B2
# Conditions: with eya2_human EYA2, O00167
row,effect of a mutation on the interaction,Variant
1,with no effect,S63A
2,with no effect,R87C
3,with no effect,G136S
4,with no effect,R208G
5,with no effect,N228T
6,with no effect,D323N

# Variants of: B3
# Conditions: with hook2_human HOOK2, Q96ED9
row,effect of a mutation on the interaction,Variant
1,with no effect,V256M

# Variants of: B4
# Conditions: with myog_human MYOG
row,effect of a mutation on the interaction,Variant
1,with no effect,R69K

# Variants of: B4
# Conditions: with myog_human MYOG
# Remark: another data set of the same source
row,effect of a mutation on the interaction,Variant
1,with no effect,S106N
2,with no effect,V213M
3,with no effect,V326A
